Assay results published in the Human Domainome abundance scans (Beltran et al. 2025).

B1: Zinc finger homeobox protein 4, residues 2086 to 2141; numbered along this chain, Q86UP3 (parent)
chain: RPRTRITDDQLKILRAYFDINNSPSEEQIQEMAEKSGLSQKVIKHWFRNTLFKERQ

Variants of: B1
Test: abundance fitness (aPCA) (normalised: wild type 0, dead -1); higher = more abundant; growth selection in yeast, the domain comes from the species named
Settings: Homo sapiens

Abundance fitness, by site and new letter:
S36: D -0.857 | T -0.108 | R -0.533 | E -0.244 | C -0.002 | W -0.42 | H -0.367 | P -0.874 | Q -0.342 | L -0.214 | G -0.28 | I -0.082 | N -0.374 | A -0.06 | K -0.824 | M -0.213 | F -0.357 | Y -0.267
R48: E -0.153 | S -0.112 | D -0.09 | G -0.042 | H 0.049 | M -0.095 | Q 0.056 | I -0.164 | C -0.056 | A -0.047 | P -0.444 | N 0.125 | L -0.04 | F -0.142
W46: L -0.239 | S -0.406 | Q -0.483 | A -0.313 | G -0.655 | V -0.221 | D -0.297 | R -0.516 | P -0.698 | N -0.762 | T -0.203 | I -0.331 | E -0.141 | F -0.237 | K -0.737 | M -0.376 | Y 0.001
Q30: T -0.025 | A -0.019 | S -0.159 | E -0.154 | I 0.196 | L 0.031 | K 0.146 | N -0.08 | W -0.349 | C -0.275 | H -0.072 | F -0.441 | G -0.116 | D -0.495
E31: R -0.007 | D -0.07 | P -0.316 | S -0.074 | N 0.011 | Q -0.005 | Y -0.162 | L -0.089 | W -0.26 | K 0.108 | A -0.104 | T -0.182 | I -0.09 | F -0.191 | G -0.106 | H -0.109 | C -0.141 | V -0.031
V42: F 0.007 | D 0.093 | C -0.002 | A 0.012 | W -0.112 | G -0.077 | H -0.069 | Q -0.037 | L -0.085 | E 0.031 | K -0.079 | M -0.021 | N -0.212 | Y -0.065 | I -0.057 | R 0.086 | S -0.059 | T -0.057 | P -0.478
Q40: S -0.115 | A -0.14 | L -0.003 | C -0.1 | M 0.03 | R -0.062 | E -0.253 | W -0.11 | F 0.038 | V -0.098 | K 0.082 | G -0.173 | I -0.091 | H -0.172 | N -0.217 | Y -0.157 | D -0.232 | T -0.188 | P -0.114
M32: F -0.547 | K -0.923 | T -0.706 | P -1.2 | D -1.37 | E -1.01 | V -0.276 | G -0.672 | W -0.511 | A -0.55 | R -0.911 | I -0.244 | Q -0.837 | H -0.686 | C -0.154 | N -1 | Y -0.212 | S -0.564
H45: S -0.004 | V -0.059 | E 0.09 | A -0.018 | Y -0.034 | L -0.042 | M -0.059 | N -0.061 | F -0.082 | Q -0.006 | K 0.038 | D 0.006 | R 0.08 | G -0.029 | W 0.023 | T 0 | C -0.181 | I -0.114 | P -0.207
K41: G -0.042 | W -0.123 | F -0.02 | H 0.033 | E -0.043 | T -0.093 | P -0.307 | A -0.136 | D 0.183 | S -0.141 | M -0.146 | V -0.124 | I -0.106 | C 0.032 | N -0.393 | L -0.174 | Q -0.235
A33: D -0.337 | Y -0.531 | P -0.84 | K -0.126 | R 0.05 | I 0.038 | W -0.582 | G 0.056 | Q 0.127 | V -0.169 | F -0.036 | C 0.181 | H 0.191 | T 0.029 | S -0.025
I43: G -1.24 | L -0.195 | F -0.607 | D -0.876 | C -0.367 | K -1.19 | H -1.05 | A -0.488 | V -0.073 | N -1.02 | S -0.994 | P -1.09 | Q -1.02 | Y -0.8 | M -0.541 | W -0.928 | E -0.946
K44: Q -0.362 | H -0.042 | M -0.098 | S -0.069 | G 0.001 | D 0.068 | C -0.204 | I -0.25 | P -0.716 | T -0.017 | R -0.01 | Y 0.049 | A 0.038 | V -0.186 | F -0.023 | E -0.031 | L -0.204 | N -0.042 | W -0.312
G37: D -0.07 | N 0.032 | K -0.054 | E -0.092 | P -0.805 | A -0.164 | F -0.46 | W -0.535 | L -0.014 | T -0.083 | I -0.602 | M -0.06 | S -0.15 | C -0.132 | Y -0.429 | R -0.032 | V -0.378 | Q -0.052 | H -0.137
L38: Q -0.349 | D -0.765 | W -0.666 | A -0.06 | E -0.557 | C -0.11 | I -0.217 | K -0.938 | P -0.982 | V -0.117 | N -0.769 | S -0.545 | F -0.793 | M -0.011 | Y -0.419 | R -0.746 | T -0.279
S39: L -0.767 | F -0.323 | G -0.227 | E 0.127 | K 0.081 | R 0.007 | A -0.163 | T -0.135 | P -0.115 | W -1.16 | Y -0.14 | M 0.217 | C -0.395
E34: V -0.037 | A -0.011 | W -0.276 | I -0.211 | S -0.162 | C -0.429 | M -0.221 | F -0.392 | K -0.147 | T 0.023 | G 0.033 | H -0.314 | N -0.136 | L -0.054 | D -0.014 | P -0.536 | Y -0.502
I29: Q -0.147 | W -0.16 | Y 0.048 | M -0.081 | R -0.21 | N -0.462 | L 0.002 | P -0.814 | T -0.266
K35: M -0.304 | V -0.418 | Q -0.18 | W -0.615 | H -0.349 | P -1.09 | D -0.375 | Y -0.537 | L -0.261 | S -0.192 | G -0.242 | F -0.415 | C -0.459 | N -0.265 | E -0.215 | I -0.518 | A -0.247
F47: D -0.708 | I -0.416 | P -0.951 | Y -0.096 | R -0.506 | T -0.234 | Q -0.342 | W -0.197 | E -0.517 | C -0.134 | V -0.041 | G -0.753 | L -0.149 | H -0.146 | S -0.287 | K -0.558 | M -0.097 | N -0.398
